# IntAct's records for PubMed 29892012
# B1: Glutaredoxin-3 (Homo sapiens), O76003 (parent)
# chain: MAAGAAEAAVAAVEEVGSAGQFEELLRLKAKSLLVVHFWAPWAPQCAQMNEVMAELAKELPQVSFVKLEAEGVPEVSEKYEISSVPTFLFFKNSQKIDRLDGAHAPELTKKVQRHASSGSFLPSANEHLKEDLNLRLKKLTHAAPCMLFMKGTPQEPRCGFSKQMVEILHKHNIQFSSFDIFSDEEVRQGLKAYSSWPTYPQLYVSGELIGGLDIIKELEASEELDTICPKAPKLEERLKVLTNKASVMLFMKGNKQEAKCGFSKQILEILNSTGVEYETFDILEDEEVRQGLKAYSNWPTYPQLYVKGELVGGLDIVKELKENGELLPILRGEN
# partner: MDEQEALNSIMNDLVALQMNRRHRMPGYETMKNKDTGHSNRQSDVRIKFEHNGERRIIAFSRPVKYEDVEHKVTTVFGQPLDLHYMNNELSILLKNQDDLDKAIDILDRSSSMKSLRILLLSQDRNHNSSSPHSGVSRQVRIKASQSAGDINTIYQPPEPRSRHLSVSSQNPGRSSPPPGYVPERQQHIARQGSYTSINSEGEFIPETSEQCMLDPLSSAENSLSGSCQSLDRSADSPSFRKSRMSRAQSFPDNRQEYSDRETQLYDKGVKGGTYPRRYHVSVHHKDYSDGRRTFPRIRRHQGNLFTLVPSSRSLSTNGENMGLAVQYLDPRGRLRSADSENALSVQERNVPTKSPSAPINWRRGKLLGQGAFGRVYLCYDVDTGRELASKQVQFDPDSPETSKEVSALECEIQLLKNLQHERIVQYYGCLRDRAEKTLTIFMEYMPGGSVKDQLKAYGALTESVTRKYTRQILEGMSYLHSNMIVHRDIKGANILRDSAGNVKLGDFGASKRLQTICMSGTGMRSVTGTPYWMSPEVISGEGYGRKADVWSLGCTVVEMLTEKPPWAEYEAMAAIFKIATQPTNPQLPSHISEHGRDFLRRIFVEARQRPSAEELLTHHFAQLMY
# B2: Glutaredoxin-3 (Homo sapiens), O76003 (parent)
# chain: B1 chain
# partner: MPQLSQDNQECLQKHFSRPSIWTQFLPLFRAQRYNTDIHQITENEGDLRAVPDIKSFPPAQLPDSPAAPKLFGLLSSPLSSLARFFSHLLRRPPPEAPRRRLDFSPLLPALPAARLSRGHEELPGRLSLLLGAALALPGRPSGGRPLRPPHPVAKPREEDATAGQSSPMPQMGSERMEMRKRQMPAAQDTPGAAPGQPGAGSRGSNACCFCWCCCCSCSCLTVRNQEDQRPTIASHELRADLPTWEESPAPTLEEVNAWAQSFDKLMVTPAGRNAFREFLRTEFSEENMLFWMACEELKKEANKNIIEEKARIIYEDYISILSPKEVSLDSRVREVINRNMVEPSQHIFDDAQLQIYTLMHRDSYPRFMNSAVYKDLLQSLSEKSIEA
# B3: Glutaredoxin-3 (Homo sapiens), O76003 (parent)
# chain: B1 chain
# partner: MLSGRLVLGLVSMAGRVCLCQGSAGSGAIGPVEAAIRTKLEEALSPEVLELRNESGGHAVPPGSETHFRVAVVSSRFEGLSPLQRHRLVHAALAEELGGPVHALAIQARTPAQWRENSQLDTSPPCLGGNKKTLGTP
# B4: Glutaredoxin-3 (Homo sapiens), O76003 (parent)
# chain: B1 chain
# partner: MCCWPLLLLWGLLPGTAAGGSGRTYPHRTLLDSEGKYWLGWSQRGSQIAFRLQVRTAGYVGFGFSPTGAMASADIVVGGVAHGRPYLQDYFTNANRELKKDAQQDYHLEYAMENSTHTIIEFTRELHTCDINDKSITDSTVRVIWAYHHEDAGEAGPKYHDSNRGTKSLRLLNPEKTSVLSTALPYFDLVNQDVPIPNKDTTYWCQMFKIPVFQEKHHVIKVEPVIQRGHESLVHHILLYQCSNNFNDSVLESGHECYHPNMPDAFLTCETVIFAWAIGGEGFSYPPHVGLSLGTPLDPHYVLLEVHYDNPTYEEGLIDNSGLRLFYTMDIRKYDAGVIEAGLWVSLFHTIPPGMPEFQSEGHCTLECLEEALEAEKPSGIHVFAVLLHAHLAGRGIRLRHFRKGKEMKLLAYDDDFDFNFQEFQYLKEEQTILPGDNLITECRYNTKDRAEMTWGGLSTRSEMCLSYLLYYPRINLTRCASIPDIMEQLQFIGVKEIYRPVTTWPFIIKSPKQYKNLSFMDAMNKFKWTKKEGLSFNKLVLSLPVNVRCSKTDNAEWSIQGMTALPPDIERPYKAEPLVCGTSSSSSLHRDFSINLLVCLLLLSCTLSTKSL
# B5: Ras suppressor protein 1 (Homo sapiens), Q15404 (parent)
# chain: MSKSLKKLVEESREKNQPEVDMSDRGISNMLDVNGLFTLSHITQLVLSHNKLTMVPPNIAELKNLEVLNFFNNQIEELPTQISSLQKLKHLNLGMNRLNTLPRGFGSLPALEVLDLTYNNLSENSLPGNFFYLTTLRALYLSDNDFEILPPDIGKLTKLQILSLRDNDLISLPKEIGELTQLKELHIQGNRLTVLPPELGNLDLTGQKQVFKAENNPWVTPIADQFQLGVSHVFEYIRSETYKYLYGRHMQANPEPPKKNNDKSKKISRKPLAAKNR
# B6: Signal transducing adapter molecule 1 (Homo sapiens), Q92783 (parent)
# chain: MPLFATNPFDQDVEKATSEMNTAEDWGLILDICDKVGQSRTGPKDCLRSIMRRVNHKDPHVAMQALTLLGACVSNCGKIFHLEVCSRDFASEVSNVLNKGHPKVCEKLKALMVEWTDEFKNDPQLSLISAMIKNLKEQGVTFPAIGSQAAEQAKASPALVAKDPGTVANKKEEEDLAKAIELSLKEQRQQSTTLSTLYPSTSSLLTNHQHEGRKVRAIYDFEAAEDNELTFKAGEIITVLDDSDPNWWKGETHQGIGLFPSNFVTADLTAEPEMIKTEKKTVQFSDDVQVETIEPEPEPAFIDEDKMDQLLQMLQSTDPSDDQPDLPELLHLEAMCHQMGPLIDEKLEDIDRKHSELSELNVKVMEALSLYTKLMNEDPMYSMYAKLQNQPYYMQSSGVSGSQVYAGPPPSGAYLVAGNAQMSHLQSYSLPPEQLSSLSQAVVPPSANPALPSQQTQAAYPNTMVSSVQGNTYPSQAPVYSPPPAATAAAATADVTLYQNAGPNMPQVPNYNLTSSTLPQPGGSQQPPQPQQPYSQKALL
# B7: Heterogeneous nuclear ribonucleoprotein F (Homo sapiens), P52597 (parent)
# chain: MMLGPEGGEGFVVKLRGLPWSCSVEDVQNFLSDCTIHDGAAGVHFIYTREGRQSGEAFVELGSEDDVKMALKKDRESMGHRYIEVFKSHRTEMDWVLKHSGPNSADSANDGFVRLRGLPFGCTKEEIVQFFSGLEIVPNGITLPVDPEGKITGEAFVQFASQELAEKALGKHKERIGHRYIEVFKSSQEEVRSYSDPPLKFMSVQRPGPYDRPGTARRYIGIVKQAGLERMRPGAYSTGYGGYEEYSGLSDGYGFTTDLFGRDLSYCLSGMYDHRYGDSEFTVQSTTGHCVHMRGLPYKATENDIYNFFSPLNPVRVHIEIGPDGRVTGEADVEFATHEEAVAAMSKDRANMQHRYIELFLNSTTGASNGAYSSQVMQGMGVSAAQATYSGLESQSVSGCYGAGYSGQNSMGGYD
# B8: PDZ and LIM domain protein 1 (Homo sapiens), O00151 (parent)
# chain: MTTQQIDLQGPGPWGFRLVGGKDFEQPLAISRVTPGSKAALANLCIGDVITAIDGENTSNMTHLEAQNRIKGCTDNLTLTVARSEHKVWSPLVTEEGKRHPYKMNLASEPQEVLHIGSAHNRSAMPFTASPASSTTARVITNQYNNPAGLYSSENISNFNNALESKTAASGVEANSRPLDHAQPPSSLVIDKESEVYKMLQEKQELNEPPKQSTSFLVLQEILESEEKGDPNKPSGFRSVKAPVTKVAASIGNAQKLPMCDKCGTGIVGVFVKLRDRHRHPECYVCTDCGTNLKQKGHFFVEDQIYCEKHARERVTPPEGYEVVTVFPK
# B9: Transmembrane protein 218 (Homo sapiens), A2RU14 (parent)
# chain: MAGTVLGVGAGVFILALLWVAVLLLCVLLSRASGAARFSVIFLFFGAVIITSVLLLFPRAGEFPAPEVEVKIVDDFFIGRYVLLAFLSAIFLGGLFLVLIHYVLEPIYAKPLHSY
# B10: Transmembrane protein 218 (Homo sapiens), A2RU14 (parent)
# chain: B9 chain
# partner: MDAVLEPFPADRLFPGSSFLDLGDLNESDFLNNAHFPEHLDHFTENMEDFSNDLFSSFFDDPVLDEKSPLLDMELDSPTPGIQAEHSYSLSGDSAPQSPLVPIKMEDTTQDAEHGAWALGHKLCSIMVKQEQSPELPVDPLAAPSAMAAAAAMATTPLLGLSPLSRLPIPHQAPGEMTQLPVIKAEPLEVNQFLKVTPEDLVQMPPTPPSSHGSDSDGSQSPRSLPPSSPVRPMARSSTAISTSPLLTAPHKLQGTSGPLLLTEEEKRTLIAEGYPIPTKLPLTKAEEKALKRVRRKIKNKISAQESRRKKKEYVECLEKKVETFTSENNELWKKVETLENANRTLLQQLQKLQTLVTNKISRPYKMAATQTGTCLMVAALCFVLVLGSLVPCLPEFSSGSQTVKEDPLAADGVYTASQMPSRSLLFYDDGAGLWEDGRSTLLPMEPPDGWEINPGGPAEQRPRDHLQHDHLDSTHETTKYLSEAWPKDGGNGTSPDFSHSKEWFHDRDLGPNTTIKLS
# Variants of: B1
# Conditions: with m3k3_human MAP3K3, Q99759
row,Variant,effect of a mutation on the interaction
1,P145A,with no effect

# Variants of: B2
# Conditions: with rgs20_human RGS20, O76081
row,Variant,effect of a mutation on the interaction
1,P145A,with no effect

# Variants of: B3
# Conditions: with bola1_human BOLA1, Q9Y3E2
row,Variant,effect of a mutation on the interaction
1,P145A,with no effect

# Variants of: B4
# Conditions: with moxd1_human MOXD1, Q6UVY6
row,Variant,effect of a mutation on the interaction
1,P145A,with no effect

# Variants of: B5
# Conditions: with lims1_human LIMS1, P48059
# Chain of lims1_human LIMS1, P48059 (P48059 whole entry): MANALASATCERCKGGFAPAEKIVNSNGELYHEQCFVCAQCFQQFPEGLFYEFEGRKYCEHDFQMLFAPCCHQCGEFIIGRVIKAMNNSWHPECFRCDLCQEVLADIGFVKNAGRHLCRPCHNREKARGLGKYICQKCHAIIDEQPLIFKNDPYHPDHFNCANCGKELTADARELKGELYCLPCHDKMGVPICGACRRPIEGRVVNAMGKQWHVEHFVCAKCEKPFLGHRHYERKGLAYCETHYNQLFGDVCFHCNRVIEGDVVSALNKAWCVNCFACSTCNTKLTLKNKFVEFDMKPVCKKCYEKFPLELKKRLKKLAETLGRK
row,Variant,effect of a mutation on the interaction
1,P57L,disrupting interaction strength

# Variants of: B6
# Conditions: with hgs_human HGS
row,Variant,effect of a mutation on the interaction
1,H331L,with no effect

# Variants of: B7
# Conditions: with hnrl1_human HNRNPUL1, Q9BUJ2
# Chain of hnrl1_human HNRNPUL1, Q9BUJ2 (Q9BUJ2 whole entry): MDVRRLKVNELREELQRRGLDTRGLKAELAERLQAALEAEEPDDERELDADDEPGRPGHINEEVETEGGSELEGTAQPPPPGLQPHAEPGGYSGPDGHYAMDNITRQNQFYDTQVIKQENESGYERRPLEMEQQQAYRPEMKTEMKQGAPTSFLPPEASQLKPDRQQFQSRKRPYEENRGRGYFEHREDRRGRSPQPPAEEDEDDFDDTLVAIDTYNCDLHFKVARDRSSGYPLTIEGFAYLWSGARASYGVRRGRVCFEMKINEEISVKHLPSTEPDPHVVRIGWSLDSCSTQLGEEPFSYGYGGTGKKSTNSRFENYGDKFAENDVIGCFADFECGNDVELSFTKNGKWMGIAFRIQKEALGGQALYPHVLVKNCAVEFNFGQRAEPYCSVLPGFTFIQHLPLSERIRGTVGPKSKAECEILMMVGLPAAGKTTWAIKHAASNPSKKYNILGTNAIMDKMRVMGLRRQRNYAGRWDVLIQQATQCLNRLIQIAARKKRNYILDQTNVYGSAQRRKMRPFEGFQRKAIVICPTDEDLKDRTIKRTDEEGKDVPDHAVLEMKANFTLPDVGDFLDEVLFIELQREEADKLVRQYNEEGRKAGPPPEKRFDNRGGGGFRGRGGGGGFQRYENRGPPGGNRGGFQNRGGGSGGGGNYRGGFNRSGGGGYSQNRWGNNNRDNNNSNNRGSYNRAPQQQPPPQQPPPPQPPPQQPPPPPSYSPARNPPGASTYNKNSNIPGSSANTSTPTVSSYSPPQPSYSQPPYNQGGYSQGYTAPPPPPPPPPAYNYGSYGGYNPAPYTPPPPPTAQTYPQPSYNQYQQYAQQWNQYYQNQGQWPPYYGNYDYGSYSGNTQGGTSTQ
row,Variant,effect of a mutation on the interaction
1,T48A,with no effect

# Variants of: B8
# Conditions: with gfap_human GFAP
row,Variant,effect of a mutation on the interaction
1,A249V,with no effect

# Variants of: B8
# Conditions: with actn4_human ACTN4, O43707
# Chain of actn4_human ACTN4, O43707 (O43707 whole entry): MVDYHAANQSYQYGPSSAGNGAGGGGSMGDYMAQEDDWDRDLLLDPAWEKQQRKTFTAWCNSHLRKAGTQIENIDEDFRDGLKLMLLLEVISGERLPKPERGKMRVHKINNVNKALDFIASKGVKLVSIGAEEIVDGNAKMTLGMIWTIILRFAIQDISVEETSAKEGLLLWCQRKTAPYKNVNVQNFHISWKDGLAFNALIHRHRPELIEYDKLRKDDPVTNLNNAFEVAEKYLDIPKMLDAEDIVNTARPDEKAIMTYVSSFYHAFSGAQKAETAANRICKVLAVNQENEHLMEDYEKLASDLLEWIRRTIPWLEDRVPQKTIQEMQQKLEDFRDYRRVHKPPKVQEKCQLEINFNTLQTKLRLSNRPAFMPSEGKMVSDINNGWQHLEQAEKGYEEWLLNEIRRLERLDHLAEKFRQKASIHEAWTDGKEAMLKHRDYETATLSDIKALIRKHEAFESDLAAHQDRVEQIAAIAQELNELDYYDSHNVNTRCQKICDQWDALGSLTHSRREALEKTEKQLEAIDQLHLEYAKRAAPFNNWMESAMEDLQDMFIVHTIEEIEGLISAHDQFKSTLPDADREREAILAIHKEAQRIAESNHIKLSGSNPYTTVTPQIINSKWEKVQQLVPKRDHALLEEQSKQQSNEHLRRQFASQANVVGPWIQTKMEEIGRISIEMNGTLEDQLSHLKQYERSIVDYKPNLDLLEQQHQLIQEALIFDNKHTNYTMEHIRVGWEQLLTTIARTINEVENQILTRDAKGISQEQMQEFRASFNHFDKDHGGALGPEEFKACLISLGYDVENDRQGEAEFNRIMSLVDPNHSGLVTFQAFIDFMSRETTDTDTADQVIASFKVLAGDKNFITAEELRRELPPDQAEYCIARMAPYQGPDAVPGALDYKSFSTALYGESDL
row,Variant,effect of a mutation on the interaction
1,A249V,with no effect

# Variants of: B9
# Conditions: with pcna_human PCNA
row,Variant,effect of a mutation on the interaction
1,P66S,with no effect

# Variants of: B10
# Conditions: with cr3l1_human CREB3L1, Q96BA8
row,Variant,effect of a mutation on the interaction
1,P66S,with no effect
